Our source for the Kd values is patent US20240400708A1.

Numbering of substitutions follows the chain as printed. Numbers in names are those of the source.

Experiment [1] has as its target feline FcRn complex (FcRn-α subunit and β-microglobulin), biotin labeled (feline). In words: SPR, pH 7.4.
The target is the same in experiment [2]. In words: SPR, pH 6.
For experiment [3], the target named is feline FcRn complex (FcRn-α subunit and β-microglobulin) (feline). In words: SPR (Biacore), FcRn on SA chip, pH 6.

Broadly, the Kd is the free concentration of one partner at which half of the binding sites on the other are occupied at equilibrium, for simple one-to-one binding. “feline IgG1a S434Y/S434F (as printed) (antibody)”: the figures for the Kd in experiment [1] and in experiment [2] were 94.8 nM and 3.61 nM, respectively. With “feline IgG1a mutant ID No. 262: S428L (antibody)”, the Kd in experiment [3] came out at 25.4 nM. In experiment [3], “feline IgG1a mutant ID No. 259: S428L (antibody)” showed a Kd of 24.5 nM.

With “feline IgG1a S252H/S428M/D312P (ID No. 215) (antibody)”, the Kd in experiment [1] is 41.2 nM; in experiment [2], 3.24 nM.

On to “feline IgG1a mutant ID No. 263: S252Y, S254T, T256E (antibody)”, for which the Kd in experiment [3] came out at 14 nM. Consider feline IgG1a T403R (antibody), for which the values for the Kd in experiment [1] and in experiment [2] were 840 nM and 6.22 nM, respectively.

B1: feline IgG1a S434G (antibody, part only; not given: Variable domains, not shown: another chain or arm of the molecule)
constant: ASTTAPSVFPLAPSCGTTSGATVALACLVLGYFPEPVTVSWNSGALTSGVHTFPAVLQASGLYSLSSMVTVPSSRWLSDTFTCNVAHPPSNTKVDKTVRKTDHPPGPKPCDCPKCPPPEMLGGPSIFIFPPKPKDTLSISRTPEVTCLVVDLGPDDSDVQITWFVDNTQVYTAKTSPREEQFNSTYRVVSVLPILHQDWLKGKEFKCKVNSKSLPSPIERTISKAKGQPHEPQVYVLPPAQEELSRNKVSVTCLIKSFHPPDIAVEWEITGQPEPENNYRTTPPQLDSDGTYFVYSKLSVDRSHWQRGNTYTCSVSHEALHGHHTQKSLTQSPGK
On to B1, for which the Kd worked out at 21.6 nM in experiment [1] and 9.58 nM in experiment [2].

B2: feline IgG1a S252R/S428L/S434F (antibody, part only; not given: Variable domains, not shown: another chain or arm of the molecule)
constant: B1 constant with S138R, S316L, G322F
Consider B2, for which the Kd in experiment [1] was found to be 774 nM; in experiment [2], 6.43 nM.

B3: feline IgG1a A378L (antibody, part only; not given: Variable domains, not shown: another chain or arm of the molecule)
constant: B1 constant with A264L, G322S
The molecule B3 registered a Kd in experiment [2] of 34.7 nM.

B4: feline IgG1a mutant ID No. 314: Q311R, D312P, L314K (antibody, part only; not given: Variable domains, not shown: another chain or arm of the molecule)
constant: B1 constant with Q197R, D198P, L200K, G322S
B4: the Kd in experiment [3] was 2130 nM.

B5: feline IgG1a A378M (antibody, part only; not given: Variable domains, not shown: another chain or arm of the molecule)
constant: B1 constant with A264M, G322S
B5 had a Kd in experiment [2] of 26.6 nM.

B6: feline IgG1a mutant ID No. 298: S428Y, Q311W, D312P, L314K (antibody, part only; not given: Variable domains, not shown: another chain or arm of the molecule)
constant: B1 constant with Q197W, D198P, L200K, S316Y, G322S
For the molecule B6, the Kd in experiment [3] was 25.3 nM. This lies in the double-digit nanomolar range.

B7: feline IgG1a A378K (antibody, part only; not given: Variable domains, not shown: another chain or arm of the molecule)
constant: B1 constant with A264K, G322S
For B7, the Kd in experiment [2] stood at 104 nM.

B8: feline IgG1a mutant ID No. 264: D312P, L314K, S434Y (antibody, part only; not given: Variable domains, not shown: another chain or arm of the molecule)
constant: B1 constant with D198P, L200K, G322Y
Take B8: in experiment [3], the Kd was 71.7 nM.

B9: feline IgG1a D312P (antibody, part only; not given: Variable domains, not shown: another chain or arm of the molecule)
constant: B1 constant with D198P, G322S
In the case of B9, the Kd in experiment [1] is 2960 nM; in experiment [2], 3.96 nM.

B10: feline IgG1a mutant ID No. 320: S428Y, D312P, S434P (antibody, part only; not given: Variable domains, not shown: another chain or arm of the molecule)
constant: B1 constant with D198P, S316Y, G322P
For B10, the Kd in experiment [3] is 22.7 nM.

B11: feline IgG1a A378H (antibody, part only; not given: Variable domains, not shown: another chain or arm of the molecule)
constant: B1 constant with A264H, G322S
In experiment [2], B11 returned a Kd of 49.3 nM.

B12: feline IgG1a mutant ID No. 265: Q311W, D312P, L314K, S434Y (antibody, part only; not given: Variable domains, not shown: another chain or arm of the molecule)
constant: B1 constant with Q197W, D198P, L200K, G322Y
With B12, the Kd in experiment [3] stood at 7.95 nM.

B13: feline IgG1a mutant ID No. 312: Q311K, D312P, L314K (antibody, part only; not given: Variable domains, not shown: another chain or arm of the molecule)
constant: B1 constant with Q197K, D198P, L200K, G322S
With B13, the Kd in experiment [3] is 6.07 nM.

B14: feline IgG1a mutant ID No. 330: S428Y, D312P, S434Y, Q311K, L314K (antibody, part only; not given: Variable domains, not shown: another chain or arm of the molecule; small tags and cut ends)
constant: B1 constant with Q197K, D198P, L200K, S316Y, G322Y
B14 returned a Kd in experiment [3] of 0.00906 nM.

B15: feline IgG1a mutant ID No. 307: D401R, T403R (antibody, part only; not given: Variable domains, not shown: another chain or arm of the molecule; small tags and cut ends)
constant: B1 constant with D289R, T291R, G322S
As for B15, the Kd in experiment [3] was 15.9 nM.

B16: feline IgG1a S428L/S434Y (antibody, part only; not given: Variable domains, not shown: another chain or arm of the molecule; small tags and cut ends)
constant: B1 constant with S316L, G322Y
In the case of B16, the Kd in experiment [1] came to 46.9 nM; in experiment [2] it was 2.75 nM.

B17: feline IgG1a H436Y (antibody, part only; not given: Variable domains, not shown: another chain or arm of the molecule)
constant: B1 constant with G322S, H324Y
For B17, the Kd in experiment [1] was found to be 43.4 nM; in experiment [2] it was 10.2 nM.

B18: feline IgG1a mutant ID No. 313: Q311M, D312P, L314K (antibody, part only; not given: Variable domains, not shown: another chain or arm of the molecule)
constant: B1 constant with Q197M, D198P, L200K, G322S
In experiment [3], B18 gave a Kd of 18.9 nM.

B19: feline IgG1a mutant ID No. 306: D399M, T403R (antibody, part only; not given: Variable domains, not shown: another chain or arm of the molecule; small tags and cut ends)
constant: B1 constant with D287M, T291R, G322S
For the molecule B19, the Kd in experiment [3] is 12.8 nM.

B20: feline IgG1a mutant ID No. 255: S428M, S434P (antibody, part only; not given: Variable domains, not shown: another chain or arm of the molecule)
constant: B1 constant with S316M, G322P
The molecule B20 came in with a Kd in experiment [3] of 7.53 nM.

B21: feline IgG1a mutant ID No. 304: D399M, D401R (antibody, part only; not given: variable domains and light chain, not shown: another chain or arm of the molecule; small tags and cut ends)
constant: B1 constant with D287M, D289R, G322S
Consider B21, for which the Kd in experiment [3] worked out at 5.43 nM.

B22: feline IgG1a mutant ID No. 322: S428Y, D312P, S434Y, D399M, D401R (antibody, part only; not given: variable domains and light chain, not shown: another chain or arm of the molecule)
constant: B1 constant with D198P, D287M, D289R, S316Y, G322Y
In experiment [3], B22 returned a Kd of 0.00402 nM.

B23: feline IgG1a Q311Y (antibody, part only; not given: Variable domains, not shown: another chain or arm of the molecule)
constant: B1 constant with Q197Y, G322S
In the case of B23, the Kd in experiment [1] stood at 41.4 nM; in experiment [2] it was 5.53 nM.

B24: feline IgG1a A378P (antibody, part only; not given: Variable domains, not shown: another chain or arm of the molecule)
constant: B1 constant with A264P, G322S
In the case of B24, the Kd in experiment [2] was 68.4 nM.

B25: feline IgG1a mutant ID No. 309: P247V, T250Q (antibody, part only; not given: Variable domains, not shown: another chain or arm of the molecule; small tags and cut ends)
constant: B1 constant with P133V, T136Q, G322S
Molecule B25 yielded a Kd in experiment [3] of 9.6 nM.

B26: feline IgG1a L314K (antibody, part only; not given: variable domains and light chain, not shown: another chain or arm of the molecule)
constant: B1 constant with L200K, G322S
Turning to B26, the Kd came to 41.5 nM in experiment [1] and 8.43 nM in experiment [2].

B27: feline IgG1a mutant ID No. 302: A431K, S434P (antibody, part only; not given: Variable domains, not shown: another chain or arm of the molecule)
constant: B1 constant with A319K, G322P
As to B27, the Kd in experiment [3] came out at 2.17 nM.

B28: feline IgG1a Q311W (antibody, part only; not given: Variable domains, not shown: another chain or arm of the molecule)
constant: B1 constant with Q197W, G322S
For the molecule B28, the Kd in experiment [1] stood at 207 nM; in experiment [2], 4.18 nM.

B29: feline IgG1a S428Y (antibody, part only; not given: Variable domains, not shown: another chain or arm of the molecule)
constant: B1 constant with S316Y, G322S
B29: the Kd stood at 18700 nM in experiment [1] and 16.4 nM in experiment [2].

B30: feline IgG1a mutant ID No. 311: Q311H, D312P, L314K (antibody, part only; not given: Variable domains, not shown: another chain or arm of the molecule; small tags and cut ends)
constant: B1 constant with Q197H, D198P, L200K, G322S
Molecule B30 yielded a Kd in experiment [3] of 1.44 nM.

B31: feline IgG1a mutant ID No. 284: S252Y, Q311W, D312P, S434Y (antibody, part only; not given: Variable domains, not shown: another chain or arm of the molecule)
constant: B1 constant with S138Y, Q197W, D198P, G322Y
On to B31, for which the Kd in experiment [3] is 7.27 nM.

B32: feline IgG1a mutant ID No. 286: S252Y, S428Y, D312P, L314K (antibody, part only; not given: Variable domains, not shown: another chain or arm of the molecule)
constant: B1 constant with S138Y, D198P, L200K, S316Y, G322S
As for B32, the Kd in experiment [3] is 27 nM.

B33: feline IgG1a S252F (antibody, part only; not given: Variable domains, not shown: another chain or arm of the molecule)
constant: B1 constant with S138F, G322S
For B33, the Kd in experiment [1] is 5960 nM; in experiment [2], 123 nM.

B34: feline IgG1a mutant ID No. 315: Q311Y, D312P, L314K (antibody, part only; not given: Variable domains, not shown: another chain or arm of the molecule)
constant: B1 constant with Q197Y, D198P, L200K, G322S
B34 showed a Kd in experiment [3] of 11.4 nM.

B35: feline IgG1a A378I (antibody, part only; not given: Variable domains, not shown: another chain or arm of the molecule)
constant: B1 constant with A264I, G322S
As to B35, the Kd in experiment [2] is 58.3 nM. This counts as double-digit nanomolar.

B36: feline IgG1a A378G (antibody, part only; not given: Variable domains, not shown: another chain or arm of the molecule)
constant: B1 constant with A264G, G322S
In experiment [2], B36 returned a Kd of 88.3 nM.

B37: feline IgG1a A431K (antibody, part only; not given: variable domains and light chain, not shown: another chain or arm of the molecule)
constant: B1 constant with A319K, G322S
For the molecule B37, the Kd amounted to 9.39 nM in experiment [1] and 10.1 nM in experiment [2].

B38: feline IgG1a S252H (antibody, part only; not given: Variable domains, not shown: another chain or arm of the molecule)
constant: B1 constant with S138H, G322S
On to B38, for which the dissociation constant Kd in experiment [1] turned out to be 8410 nM; in experiment [2], 49.9 nM.

B39: feline IgG1a A378F (antibody, part only; not given: Variable domains, not shown: another chain or arm of the molecule)
constant: B1 constant with A264F, G322S
On to B39, for which the Kd in experiment [2] was found to be 74.8 nM.

B40: feline IgG1a mutant ID No. 275: S252R, S434R (antibody, part only; not given: Variable domains, not shown: another chain or arm of the molecule)
constant: B1 constant with S138R, G322R
B40: the Kd in experiment [3] came to 78.6 nM.

B41: feline IgG1a S252Y (antibody, part only; not given: Variable domains, not shown: another chain or arm of the molecule)
constant: B1 constant with S138Y, G322S
As to B41, the Kd was determined as 12700 nM in experiment [1] and 893 nM in experiment [2].

B42: feline IgG1a A378N (antibody, part only; not given: variable domains and light chain, not shown: another chain or arm of the molecule)
constant: B1 constant with A264N, G322S
Turning to B42, in experiment [2], the Kd turned out to be 28.6 nM.

B43: feline IgG1a mutant ID No. 253: S428M, S434L (antibody, part only; not given: Variable domains, not shown: another chain or arm of the molecule)
constant: B1 constant with S316M, G322L
For the molecule B43, the Kd in experiment [3] worked out at 8 nM.
